Results on one protein are retold here after US20150376674.

This data set concerns the target tetranectin-apolipoprotein A-I fusion polypeptide precursor polypeptide.

B1: IgA-protease protein from Neisseria gonorrhoeae (protein)
chain: ALVRDDVDYQIFRDFAENKGKFFVGATDLSVKNKRGQNIGNALSNVPMIDFSVADVNKRIATVVDPQYAVSVKHAKAEVHTFYYGQYNGHNDVADKENEYRVVEQNNYEPHKAWGASNLGRLEDYNMARFNKFVTEVAPIAPTDAGGGLDTYKDKNRFSSFVRIGAGRQLVYEKGVYHQEGNEKGYDLRDLSQAYRYAIAGTPYKDINIDQTMNTEGLIGFGNHNKQYSAEELKQALSQDALTNYGVLGDSGSPLFAFDKQKNQWVFLGTYDYWAGYGKKSWQEWNIYKKEFADKIKQHDNAGTVKGNGEHHWKTTGTNSHIGSTAVRLANNEGDANNGQNVTFEDNGTLVLNQNINQGAGGLFFKGDYTVKGANNDITWLGAGIDVADGKKVVWQVKNPNGDRLAKIGKGTLEINGTGVNQGQLKVGDGTVILNQKADADKKVQAFSQVGIVSGRGTLVLNSSNQINPDNLYFGFRGGRLDANGNDLTFEHIRNVDEGARIVNHNTDHASTITLTGKSLITNPNSLSVHSIQNDYDEDDYSYYYRPRRPIPQGKDLYYKNYRYYALKSGGRLNAPMPENGVAENNDWIFMGYTQEEARKNAMNHKNNRRIGDFGGFFDEENGKGHNGALNLNFNGKSAQKRFLLTGGANLNGKISVTQGNVLLSGRPTPHARDFVNKSSARKDAHFSKNNEVVFEDDWINRTFKAAEIAVNQSASFSSGRNVSDITANITATDNAKVNLGYKNGDEVCVRSDYTGYVTCNTGNLSDKALNSFDATRINGNVNLNQNAALVLGKAALWGKIQGQGNSRVSLNQHSKWHLTGDSQVHNLSLADSHIHLNNASDAQSANKYHTIKINHLSGNGHFHYLTDLAKNLGDKVLVKESASGHYQLHVQNKTGEPNQEGLDLFDASSVQDRSRLFVSLANHYVDLGALRYTIKTENGITRLYNPYAGNGRPVKPAP
For B1, the Cleavage activity entry is on record as “Cleavage activity was in the expected range”.
